This note sets out measurements from paper doi:10.1101/2020.12.12.421834 (bioRxiv, 2020).

In experiment [1] the target is T1, PD1 N-terminal loop-GST fusion protein (Homo sapiens).
T1 chain: LDSPDRPWNP
In words: ELISA.

Experiment [2] addresses full-length human PD1 expressed on the surface of NS1 cells (human, UniProt Q15116). Kind of experiment: flow cytometry on cells.
The target of experiment [3] is T2, PD1 extracellular domain, without Fc fusion (Homo sapiens, UniProt Q15116). In words: ELISA.
T2 sequence (Q15116 25-170): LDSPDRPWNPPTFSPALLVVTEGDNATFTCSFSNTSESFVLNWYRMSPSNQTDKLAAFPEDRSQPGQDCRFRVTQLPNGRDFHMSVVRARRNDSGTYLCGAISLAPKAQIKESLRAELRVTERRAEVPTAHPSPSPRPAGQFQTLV
Experiment [4] concerns the target T2, PD1 extracellular domain, without Fc …. Kind of experiment: SPR.

full-length human PD1 expressed on the surface of NS1 cells, sequence (Q15116 25-288): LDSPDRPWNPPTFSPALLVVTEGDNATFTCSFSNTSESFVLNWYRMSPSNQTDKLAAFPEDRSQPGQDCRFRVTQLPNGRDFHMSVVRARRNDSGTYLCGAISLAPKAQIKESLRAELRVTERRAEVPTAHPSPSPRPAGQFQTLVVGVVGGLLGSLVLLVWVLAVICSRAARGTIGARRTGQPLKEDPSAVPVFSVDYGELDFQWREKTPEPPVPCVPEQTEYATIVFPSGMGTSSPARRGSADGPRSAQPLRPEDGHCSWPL

B1: M1-1 anti-PD1 antibody (human IgG4/kappa, C-terminal 6xHis) (antibody, V domains shown)
VH: QVQLVESGGDVVQPGGSLRLSCAASGVAFRDYGMHWVRQAPGKGLEWVAVIWYDGSKKYYGDSVKGRFTVSRDNSKNMLYLEMNGLKAEDTAMYYCARNDDYWGQGTLVTVSS
VL: EIVLTQSPATLSLSPGERATLSCRASQSVSNSLSWYQQNPGQSPRLIIYDTSKRATGIPARFSGSGSGTDFTLTINNLETEDFAVYYCHQRSDWPLTFGGGTKVEIK
As to B1, the binding result in experiment [1] and in experiment [2] was “binds” throughout.

B2: M2-4 anti-PD1 antibody (human IgG4/kappa, C-terminal 6xHis) (antibody, V domains shown)
VH: QVQLVESGGDVVQPGGSLRLSCAASGVAFRNYGMHWVRQAPGKGLEWVAIIWYDGSNKYYADSVKGRFTISRDNSKNMLYLQMNSLRAEDTAMYYCARLSIGTTHYFDTDDYWGQGTSVTVSS
VL: EIVLTQSPATLSLSPGERATLSCRASQSVSSYLAWYQQKVGQAPRLIIFDASNRATGIPARFSGSGSGTDFTLTITSLDPEDFAVYYCQQRSAWPLTFGGGTKVEIR
As to B2, the binding result in experiment [1] and in experiment [2] was “binds” throughout.

B3: M1-3 anti-PD1 antibody (human IgG4/kappa, C-terminal 6xHis) (antibody, V domains shown)
VH: QEWLVESGGDVVQPGGSLRLSCATSKVTFNDFGIHWVRQAPGKGLEWVAIIWYDGSRNHYADSVRGRFTLSRDNSKNMVHLHMSSLRTEDTAMYYCARGIHSNDDYWGQGTMVTVSS
VL: EIVLTQSPATLSLSPGERATLSCRTSQSVSSDLAWFQQKPGQAPRLFIFDASKRVNGIPARFSGSGSGTDFTLTISSLEPEDFAVYYCQQRTDWPLTFGGGSRVEIK
For B3, the binding result in experiment [3], in experiment [1] and in experiment [2] was “binds” each time.

B4: M1-6 anti-PD1 antibody (human IgG4/kappa, C-terminal 6xHis) (antibody, V domains shown)
VH: QVQLVESGGDVVQSGGSLRLSCAVSGVVFSDYGFEWVRQAPGKGLEWVAVIWYDGSRKHYADSVQGRFTISRDNFRNMLYLQMTGLRVEDTAKYYCTRSHSHEDYWGQGTLVTVSS
VL: EIVLTQSPATLSLSPGERATLSCGASQNIDNSLAWFQQKPGQAPRLIIYDASKRATGIPARFSGSGSGTDFTLTISTLEPEDFAVYYCQQRDHWPLNFGGGTKVEVK
As for B4, the binding result in experiment [3], in experiment [1] and in experiment [2] was “binds” each time.

B5: M1-5 anti-PD1 antibody (human IgG4/kappa, C-terminal 6xHis) (antibody, V domains shown)
VH: QVQLVESGGDVVQPGGSLRLSCTVSGAVFRDLGMEWVRQAPGKGLEWLAVIWYDGGRKHYADSVKGRFTISRDNSRNMLFLQMNGLRVDDTAMYYCTRSHSTDDYWGQGTLVTVSS
VL: EIVLTQSPATLSVSPGERATLSCRASQSISSDLAWFQQKPGQAPRLIIHGASKRATGIPARFSGSGSGTDFTLTISSLEPEDFAVYYCQQRDSWPLNFGGGTKVEIK
Turning to B5, the binding result in experiment [3], in experiment [1] and in experiment [2] was “binds” each time.

B6: M1-4 anti-PD1 antibody (human IgG4/kappa, C-terminal 6xHis) (antibody, V domains shown)
VH: QVQLVESGGDVVQPGGSLRLSCAVSGVTFGDFGFEWVRQAPGKGLEWVAVIWYDGSRKHYAESVRGRFTISRDNSRNMMYLEMTGLRVEDTAKYYCTRSHSHEDYWGQGTLVTVSS
VL: EIVLTQSPATLSLSPGERATLSCRASQSISNYLAWFQQKSGQAPRLIIHDAFKRAAGIPTRFSGSGSGTDFTLTISSLEPEDFAVYYCQQRDNWPLNFGGGTKVEIK
Take B6: the binding result in experiment [3], in experiment [1] and in experiment [2] was “binds” in each case.

B7: M2-5 anti-PD1 antibody (human IgG4/kappa, C-terminal 6xHis) (antibody, V domains shown)
VH: QVQLVESGGDVVQPGGSLRLSCAASGVVFSDYGLYWVRQAPGKGLEWVALIWYDGSKKFYADSVKGRFSISRDNSKNMLYLQMNNLRADDSAIYYCSRGIRQGPWFAYWGQGTRVTVSP
VL: EIVLTQSPATLSLSPGERATLSCRASQSISSDLTWFQQKPGQAPRLIIYDASNRATGIPARFSGSGSGTDFTLTISSLEPEDFVVYYCLQRSDWPLTFGGGTKVEIK
Take B7: the binding result in experiment [3], in experiment [1] and in experiment [2] was “binds” in each case.

B8: M1-5 anti-PD1 antibody (human IgG4/k, without C-terminal His tag) (antibody, V domains shown)
VH: QVQLVESGGDVVQPGGSLRLSCTVSGAVFRDLGMEWVRQAPGKGLEWLAVIWYDGGRKHYADSVKGRFTISRDNSRNMLFLQMNGLRVDDTAMYYCTRSHSTDDYWGQGTLVTVSS
VL: EIVLTQSPATLSVSPGERATLSCRASQSISSDLAWFQQKPGQAPRLIIHGASKRATGIPARFSGSGSGTDFTLTISSLEPEDFAVYYCQQRDSWPLNFGGGTKVEIK
In the case of B8, in experiment [4], the binding result was “binds”.

B9: 17D8 anti-PD1 antibody (human IgG4/k, without C-terminal His tag) (antibody, V domains shown)
VH: QVQLVESGGDVVQPGGSLRLSCAASGVAFSNYGMHWVRQAPGKGLEWVAVIWYDGSNKYYADSVKGRFTISRDNSKNMLYLQMNSLRAEDTAMYYCARNDDYWGQGTLVTVSS
VL: EIVLTQSPATLSLSPGERATLSCRASQSVSSYLAWYQQKPGQAPRLIIYDASNRATGIPARFSGSGSGTDFTLTISSLEPEDFAVYYCQQRSNWPLTFGGGTKVEIK
On to B9, for which the binding result in experiment [4] was “binds”.

B10: 17D8 anti-PD1 antibody (human IgG4/kappa, C-terminal 6xHis) (antibody, V domains shown)
VH: QVQLVESGGDVVQPGGSLRLSCAASGVAFSNYGMHWVRQAPGKGLEWVAVIWYDGSNKYYADSVKGRFTISRDNSKNMLYLQMNSLRAEDTAMYYCARNDDYWGQGTLVTVSS
VL: EIVLTQSPATLSLSPGERATLSCRASQSVSSYLAWYQQKPGQAPRLIIYDASNRATGIPARFSGSGSGTDFTLTISSLEPEDFAVYYCQQRSNWPLTFGGGTKVEIK
For B10, the binding result in experiment [2] is reported as “binds”.

B11: M2-3 anti-PD1 antibody (human IgG4/kappa, C-terminal 6xHis) (antibody, V domains shown)
VH: QGHLVESGGDVVLPGGSLRLSCTESGVDLSDFGIHWVRQTPGKGLEWVALIWYDGSKKFYADSVKDRFTISRDNSKNMVYLEMISLRVEDTAMYFCARGIRRGPWFTYWGPGTLVTVST
VL: EIVLTQSPVILSLSPGERATLSCRASQSISSDLAWFQQTPGQAPRLIIYDASNRATGIPARFSGSGSGTDFTLTISSLEPEDFAVYYCQQRSNWPLTFGGGTKVEIK
As to B11, the binding result in experiment [3], in experiment [1] and in experiment [2] was “binds” throughout.

B12: M1-7 anti-PD1 antibody (human IgG4/kappa, C-terminal 6xHis) (antibody, V domains shown)
VH: QLQLVESGGDVVQPGGSLRLSCAASGVVFSDFGLEWVRQAPGKGLEWLAVIWYDGSRKHYADSVKGRFTISRDNSKNMLYLQMNSLRVEDTAMYYCARCHSKEDYWGQGTLVTVSS
VL: EIEVTQSPATLSLSPGERATLSCRASQSIDTDLAWFQQRPGQTPRLIIYDASKRATGIPARFSGGGSGTDFTLTISSLEPEDFAVYYCQQRTTWPLTFGGGTKVEIK
Regarding B12, the binding result in experiment [2] was “binds”.

B13: M1-2 anti-PD1 antibody (human IgG4/kappa, C-terminal 6xHis) (antibody, V domains shown)
VH: QVQLVESGGDVVQPGGSLRLSCAASGVAFSDYGMEWVRQAPGKGLEWLAVIWYDGSRKHYADSVKGRFTISRDNSKNILYLQMNSLRAEDTAMYYCARCHSKDDYWGQGTLVTVSS
VL: EIVLTQFPATLSLSPGERATLSCRTSQNIDSDLAWFQQKPGQAPRLIIYDASNRATGIPARFSGGGSGTDFTLTITSLEPEDFAVYYCQQRTTWPLTFGGGTKVEIK
On to B13, for which the binding result in experiment [1] is given as “no binding”; in experiment [2], “binds”.

B14: M2-1 anti-PD1 antibody (human IgG4/k, without C-terminal His tag) (antibody, V domains shown)
VH: QVQLVESGGDVVQPGGSLRLSCSASGLVFRDYGMNWVRQAPGKGLEWVGLIWYDGTKKYYSDFVKGRFTISRDNSKNMLYLQMNNLRAEDTAIYYCARFLIGATRRGNAMDYWGQGTSVIVSS
VL: EVVLTQSPATLSLSPGERATLSCRASQSIDSDLAWSQQKTGQPPRLIIYDASNRATGIPARFSGSGSGTDFTLTISSLEPEDFAVYYCQQRSDWPLTFGGGTKVEIR
Consider B14, for which the binding result in experiment [4] was “binds”.

B15: M2-2 anti-PD1 antibody (human IgG4/kappa, C-terminal 6xHis) (antibody, V domains shown)
VH: QVQLVESGGDVVQPGGSLRLSCSASGLVISDYGMNWVRQAPGKGLEWVGLIWYDGSKKYYSDFVKGRFTISRDNSKNILYLQMNNLRAEDTAMYYCARFLIGATRRGNAMDYWGQGTSVTVSS
VL: EVVLTQSPATLSLSPGERATLSCRASQSIDSDLAWSQQKPGQPPRLIIYDASNRATGIPARFSGSGSGTDFTLTISSLEPEDFAVYYCQQRSDWPLTFGGGTKVEIR
As for B15, the binding result in experiment [3], in experiment [1] and in experiment [2] was “binds” throughout.

B16: M2-1 anti-PD1 antibody (human IgG4/kappa, C-terminal 6xHis) (antibody, V domains shown)
VH: QVQLVESGGDVVQPGGSLRLSCSASGLVFRDYGMNWVRQAPGKGLEWVGLIWYDGTKKYYSDFVKGRFTISRDNSKNMLYLQMNNLRAEDTAIYYCARFLIGATRRGNAMDYWGQGTSVIVSS
VL: EVVLTQSPATLSLSPGERATLSCRASQSIDSDLAWSQQKTGQPPRLIIYDASNRATGIPARFSGSGSGTDFTLTISSLEPEDFAVYYCQQRSDWPLTFGGGTKVEIR
Regarding B16, the binding result in experiment [3], in experiment [1] and in experiment [2] was “binds” in each case.
